Experiment [1] deals with anti-CD19 T-ChARM^2 with 4-1BB/CD3ζ effector domain. Briefly: flow cytometry of CD19-ChARM2 T cells; gated FSC/SSC, PI-negative, CD4+; StrepTactin-APC lot 5010-1015; gate from 10^3 on the APC-A axis [Continued]. Background: In flow cytometry, cells or beads pass a laser one at a time.
Experiment [2] concerns the target anti-CD19 T-ChARM^3 with 4-1BB/CD3ζ effector domain. Briefly: immunomagnetic selection on a MACS column of T-ChARM3 T cells mixed with control T cells with StrepTactin Microbeads 1#; effluent (not retained) stained with anti-Strep tag-FITC, flow cytometry; 30.2 before enrichment [Continued].
Experiment [3] has the same target. The experiment can be described thus: immunomagnetic selection on a MACS column of T-ChARM3 T cells mixed with control T cells with StrepTactin Nanobeads 3#; retained fraction stained with anti-Strep tag-FITC, flow cytometry; 30.2 before enrichment [Continued].
Experiment [4] shares this target. The experiment can be described thus: flow cytometry of CD19-ChARM3 T cells; gated FSC/SSC, PI-negative, CD4+; StrepTactin-APC lot 5010-1018; gate from 10^3 on the APC-A axis [Continued].
The target in experiment [5] is anti-CD19 CAR (short), IgG4 hinge only, 4-1BB/CD3ζ, no tag. Briefly: flow cytometry of CD19(Short) CAR T cells (no tag, control); gated FSC/SSC, PI-negative, CD4+; StrepTactin-APC lot 5010-1015; gate from 10^3 on the APC-A axis [Continued].
Experiment [6] deals with anti-CD19 T-ChARM^3 with 4-1BB/CD3ζ effector domain. Briefly: immunomagnetic selection on a MACS column of T-ChARM3 T cells mixed with control T cells with StrepTactin Microbeads 2#; retained fraction stained with anti-Strep tag-FITC, flow cytometry; 30.2 before enrichment [Continued].
The target is the same in experiment [7]. The experiment can be described thus: flow cytometry of CD19-ChARM3 T cells; gated FSC/SSC, PI-negative, CD4+; StrepTactin-APC lot 5010-1015; gate from 10^3 on the APC-A axis [Continued].
Experiment [8] deals with anti-CD19 CAR (short), IgG4 hinge only, 4-1BB/CD3ζ, no tag. The experiment can be described thus: flow cytometry of CD19(Short) CAR T cells (no tag, control); gated FSC/SSC, PI-negative, CD4+; StrepTactin-APC lot 5010-1018; gate from 10^3 on the APC-A axis [Continued].
Experiment [9] concerns the target anti-CD19 T-ChARM^3 with 4-1BB/CD3ζ effector domain. Briefly: immunomagnetic selection on a MACS column of T-ChARM3 T cells mixed with control T cells with StrepTactin Microbeads 1#; retained fraction stained with anti-Strep tag-FITC, flow cytometry; 30.2 before enrichment [Continued].
In experiment [10] the target is anti-CD19 T-ChARM^2 with 4-1BB/CD3ζ effector domain. The experiment can be described thus: flow cytometry of CD19-ChARM2 T cells; gated FSC/SSC, PI-negative, CD4+; StrepTactin-APC lot 5010-1018; gate from 10^3 on the APC-A axis [Continued].

Turning to Strep-Tactin, the percent of cells in the StrepTactin-APC (APC-A) positive gate was found to be 92% in experiment [1]; 96.5% in experiment [4]; 18.1% in experiment [5]; 94.7% in [7]; 24.9% in experiment [8]; 93.5% in [10]. In [2], the percent STII (FITC-A) positive cells in the column effluent was 9.91%. Further, the values for the percent STII (FITC-A) positive cells in the bead-retained fraction (Enrichment) in experiment [3], in experiment [6] and in experiment [9] were 80.5%, 87% and 77.7%, respectively.

Values taken from patent publication US20170267756A1.
